The record followed here is patent publication US20110166081A1 (UNIVERSITY OF IOWA RESEARCH FOUNDATION, published 2011).

For the assay, the target named is T1, mouse integrin alpha7beta1 from digitonin-solubilized skeletal muscle (mouse, UniProt Q61738 34-1135; P09055 21-801, limits assumed).
T1 construct: also called integrin α7β1; alpha7beta1 integrin
Nature of the assay: WGA lectin affinity chromatography and sucrose gradient fractionation of digitonin-solubilized muscle, immunoblot. In general terms: In western blotting, separated proteins are transferred to a membrane and probed.

T1 sequence (Q61738 other isoform, or with tags, fused parts or gaps limits assumed, chain 1 of 2): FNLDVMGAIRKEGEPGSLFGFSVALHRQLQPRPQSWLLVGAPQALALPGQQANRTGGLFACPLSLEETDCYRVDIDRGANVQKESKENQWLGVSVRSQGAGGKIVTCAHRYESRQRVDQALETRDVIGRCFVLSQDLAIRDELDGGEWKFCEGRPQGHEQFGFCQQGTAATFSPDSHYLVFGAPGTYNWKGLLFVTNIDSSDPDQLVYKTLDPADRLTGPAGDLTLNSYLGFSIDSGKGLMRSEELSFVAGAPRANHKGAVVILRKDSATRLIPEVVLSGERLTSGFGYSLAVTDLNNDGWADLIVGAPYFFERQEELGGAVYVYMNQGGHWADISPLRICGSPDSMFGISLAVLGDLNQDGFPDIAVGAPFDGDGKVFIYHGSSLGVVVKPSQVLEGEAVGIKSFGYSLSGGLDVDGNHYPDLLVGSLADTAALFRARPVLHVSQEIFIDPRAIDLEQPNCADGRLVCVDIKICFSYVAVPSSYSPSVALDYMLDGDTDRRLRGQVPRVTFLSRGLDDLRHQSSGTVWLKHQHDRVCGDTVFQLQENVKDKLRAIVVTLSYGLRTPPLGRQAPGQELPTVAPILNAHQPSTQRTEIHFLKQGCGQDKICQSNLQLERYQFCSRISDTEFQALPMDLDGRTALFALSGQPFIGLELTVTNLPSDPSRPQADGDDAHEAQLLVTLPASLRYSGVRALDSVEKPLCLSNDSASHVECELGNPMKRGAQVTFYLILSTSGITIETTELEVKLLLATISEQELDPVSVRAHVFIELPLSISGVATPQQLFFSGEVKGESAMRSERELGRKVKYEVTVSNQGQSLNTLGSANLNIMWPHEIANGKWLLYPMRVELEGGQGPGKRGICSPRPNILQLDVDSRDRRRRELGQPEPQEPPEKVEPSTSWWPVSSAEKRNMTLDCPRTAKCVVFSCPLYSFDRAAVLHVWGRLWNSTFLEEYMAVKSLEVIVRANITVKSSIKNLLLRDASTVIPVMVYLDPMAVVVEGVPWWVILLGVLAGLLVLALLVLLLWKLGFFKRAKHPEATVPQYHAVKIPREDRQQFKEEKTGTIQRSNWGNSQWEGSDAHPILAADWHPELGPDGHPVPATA
T1 sequence (P09055 other isoform, or with tags, fused parts or gaps limits assumed, chain 2 of 2): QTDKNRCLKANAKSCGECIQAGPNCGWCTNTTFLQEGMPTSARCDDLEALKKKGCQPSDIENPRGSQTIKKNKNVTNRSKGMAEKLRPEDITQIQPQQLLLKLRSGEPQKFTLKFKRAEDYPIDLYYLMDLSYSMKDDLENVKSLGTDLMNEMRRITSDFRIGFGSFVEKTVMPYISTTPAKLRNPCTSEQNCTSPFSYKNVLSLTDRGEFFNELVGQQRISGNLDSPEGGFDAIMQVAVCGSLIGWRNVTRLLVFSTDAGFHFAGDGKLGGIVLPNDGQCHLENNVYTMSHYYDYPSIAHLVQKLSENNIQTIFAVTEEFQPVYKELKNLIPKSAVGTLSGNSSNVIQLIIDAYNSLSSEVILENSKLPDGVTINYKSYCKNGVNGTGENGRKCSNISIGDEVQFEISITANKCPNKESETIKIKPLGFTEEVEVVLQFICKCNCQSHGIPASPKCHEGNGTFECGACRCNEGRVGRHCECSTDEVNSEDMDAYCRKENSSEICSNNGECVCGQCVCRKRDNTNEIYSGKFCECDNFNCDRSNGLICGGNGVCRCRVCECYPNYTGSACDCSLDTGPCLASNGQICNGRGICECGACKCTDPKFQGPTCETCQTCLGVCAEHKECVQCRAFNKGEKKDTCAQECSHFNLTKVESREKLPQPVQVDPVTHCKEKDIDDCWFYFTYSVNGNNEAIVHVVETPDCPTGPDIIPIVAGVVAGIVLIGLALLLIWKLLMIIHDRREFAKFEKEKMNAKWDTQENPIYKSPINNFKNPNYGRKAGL
Excerpt: Characterization of skeletal muscle dystroglycan and integrin α7 complexes. Sucrose gradient fractionation of the DGC and the integrin α7 complex from wild-type (A, C), DG-deficient (B) and integrin α7-null (D) skeletal muscle solubilized with digitonin. Glycoprotein preparations enriched by WGA-chromatography were fractionated by sucrose gradient centrifugation. Equal volumes of fractions were loaded on an SDS-PAGE gel. The blot generated from this was probed with antibodies against: integrin α7 (α7), integrin β1(β1), α-DG (α-DG), α-sarcoglycan (α-SG), β-sarcoglycan (β-SG) and γ-sarcoglycan (γ-SG).
Lectin affinity chromatography and sucrose gradient fractionation. Total muscle homogenates in TBS (50 mM Tris-Cl pH 7.4, 150 mM NaCl) were solubilized with 1% digitonin. After centrifugation at 140,000×g for 37 min, solubilized proteins in the supernatant were mixed with wheat germ agglutinin (WGA)-agarose beads (Vector Laboratories) and rotated end-over-end at 4° C. for 2 hours. WGA-bound proteins were eluted with TBS containing 0.3 M N-acetyl-D-glucosamine and 0.1% digitonin. The eluant was applied to a 5-30% sucrose gradient and centrifuged at 215,000×g for 90 min. Fractions (1 ml) were collected from the top of the gradient and analyzed by SDS-PAGE.

B1: mouse dystroglycan from digitonin-solubilized skeletal muscle (receptor)
chain 1: HWPSEPSEAVRDWKNQLEASMHSVLSDFQEAVPTVVGIPDGTAVVGRSFRVSIPTDLIASSGEIIKVSAAGKEALPSWLHWDPHSHILEGLPLDTDKGVHYISVSAARLGANGSHVPQTSSVFSIEVYPEDHNEPQSVRAASSDPGEVVPSACAADEPVTVLTVILDADLTKMTPKQRIDLLNRMQSFSEVELHNMKLVPVVNNRLFDMSAFMAGPGNAKKVVENGALLSWKLGCSLNQNSVPDIRGVETPAREGAMSAQLGYPVVGWHIANKKPTLPKRLRRQIHATPTPVTAIGPPTTAIQEPPSRIVPTPTSPAIAPPTETMAPPVRDPVPGKPTVTIRTRGAIIQTPTLGPIQPTRVSEAGTTVPGQIRPTLTIPGYVEPTAVITPPTTTTKKPRVSTPKPATPSTDSSTTTTRRPTKKPRTPRPVPRVTTKAPITRLETASPPTRIRTTTSGVPRGGEPNQRPELKNHIDRVDAWVGTYFEVKIPSDTFYDNEDTTTDKLKLTLKLREQQLVGEKSWVQFNSNSQLMYGLPDSSHVGKHEYFMHATDKGGLSAVDAFEIHVHKRPQGDKAPARFKARLAGDPAPVVNDIHKKIALVKKLAFAFGDRNCSSITLQNITRG
chain 2: SIVVEWTNNTLPLEPCPKEQIIGLSRRIADENGKPRPAFSNALEPDFKALSIAVTGSGSCRHLQFIPVAPPSPGSSAAPATEVPDRDPEKSSEDDVYLHTVIPAVVVAAILLIAGIIAMICYRKKRKGKLTLEDQATFIKKGVPIIFADELDDSKPPPSSSMPLILQEEKAPLPPPEYPNQSMPETTPLNQDTVGEYTPLRDEDPNAPPYQPPPPFTAPMEGKGSRPKNMTPYRSPPPYVPP
notes: Native protein, WGA-enriched, within the dystrophin-glycoprotein complex; also called DG; DGC
For B1, the binding result is given as “no binding”.
